Earlier results, collected in PMC2483503.
One block for each substance: values may come before it.

What was measured:
Test in all cases: ITC
[1] = target: FAK proline-rich peptide (PXXP) (Homo sapiens) (UniProt Q05397)
[2] = target: FAK peptide FAK peptide (proline-rich and pY motifs) (Homo sapiens) (UniProt Q05397)
[3] = target: FAK peptide (Homo sapiens) (UniProt Q05397)
[4] = target: CD3 zeta ITAM C-terminal pY peptide ITAM C-terminal pY peptide (Homo sapiens) (UniProt P20963)
[5] = target: CD3 zeta ITAM bisphosphopeptide ITAM bisphosphopeptide (Homo sapiens) (UniProt P20963)
[6] = target: CD3 zeta ITAM N-terminal pY peptide ITAM N-terminal pY peptide (Homo sapiens) (UniProt P20963)

ZAP70 SH2 domains, sequence (P43403 1-259): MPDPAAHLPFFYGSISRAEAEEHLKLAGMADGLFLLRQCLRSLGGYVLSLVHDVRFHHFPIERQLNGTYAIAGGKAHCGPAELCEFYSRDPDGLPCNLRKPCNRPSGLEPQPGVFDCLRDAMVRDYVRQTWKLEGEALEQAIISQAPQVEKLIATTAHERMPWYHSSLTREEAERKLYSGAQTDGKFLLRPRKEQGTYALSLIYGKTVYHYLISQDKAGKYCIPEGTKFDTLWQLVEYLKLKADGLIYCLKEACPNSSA
Fyn SH3-SH2, sequence (P06241 82-246): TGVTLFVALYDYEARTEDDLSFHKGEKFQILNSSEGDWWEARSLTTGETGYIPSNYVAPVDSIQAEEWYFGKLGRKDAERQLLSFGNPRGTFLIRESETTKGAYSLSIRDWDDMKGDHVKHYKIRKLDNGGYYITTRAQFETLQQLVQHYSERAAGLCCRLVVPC
FAK peptide FAK peptide (proline-rich and pY motifs) (Homo sapiens), sequence (Q05397 368-403): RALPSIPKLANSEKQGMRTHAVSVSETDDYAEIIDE
FAK peptide (Homo sapiens), sequence (Q05397 2-1052): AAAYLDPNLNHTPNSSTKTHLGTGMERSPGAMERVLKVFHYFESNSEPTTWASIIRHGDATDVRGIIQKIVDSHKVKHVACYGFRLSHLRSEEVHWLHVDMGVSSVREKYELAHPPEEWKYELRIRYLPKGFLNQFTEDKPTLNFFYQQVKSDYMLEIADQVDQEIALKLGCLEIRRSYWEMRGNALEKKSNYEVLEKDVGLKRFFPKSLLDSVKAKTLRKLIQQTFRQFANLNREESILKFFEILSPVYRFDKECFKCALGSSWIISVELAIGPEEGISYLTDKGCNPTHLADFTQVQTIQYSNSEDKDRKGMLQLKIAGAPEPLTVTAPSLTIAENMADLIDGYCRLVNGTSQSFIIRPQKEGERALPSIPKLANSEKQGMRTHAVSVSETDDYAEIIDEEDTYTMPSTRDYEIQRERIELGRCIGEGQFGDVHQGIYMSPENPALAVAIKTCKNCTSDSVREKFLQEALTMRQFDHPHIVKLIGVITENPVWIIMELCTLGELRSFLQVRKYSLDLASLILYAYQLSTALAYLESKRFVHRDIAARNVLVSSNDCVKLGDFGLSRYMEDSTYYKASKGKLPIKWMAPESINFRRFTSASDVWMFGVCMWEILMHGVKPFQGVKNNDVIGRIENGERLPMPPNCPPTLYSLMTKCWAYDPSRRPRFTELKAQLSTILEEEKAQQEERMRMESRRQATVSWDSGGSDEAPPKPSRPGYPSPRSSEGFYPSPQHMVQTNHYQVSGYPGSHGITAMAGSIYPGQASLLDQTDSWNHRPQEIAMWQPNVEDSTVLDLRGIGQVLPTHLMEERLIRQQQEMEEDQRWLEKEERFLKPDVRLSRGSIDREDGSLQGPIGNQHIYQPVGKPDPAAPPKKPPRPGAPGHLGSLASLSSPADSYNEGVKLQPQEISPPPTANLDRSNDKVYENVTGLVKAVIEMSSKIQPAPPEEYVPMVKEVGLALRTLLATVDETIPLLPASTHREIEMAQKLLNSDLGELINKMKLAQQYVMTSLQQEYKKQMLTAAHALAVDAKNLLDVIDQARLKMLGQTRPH
Fyn SH3, sequence (P06241 79-146): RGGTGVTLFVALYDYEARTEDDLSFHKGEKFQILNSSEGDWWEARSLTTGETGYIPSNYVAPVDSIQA

Kd [1]: 62 µM
Substance: Fyn SH3 (from UniProt P06241)

Kd [2]: 0.19 µM
Kd [3]: 0.19 µM
Substance: Fyn SH3-SH2 (from UniProt P06241)

Kd [4]: 333 µM
Kd [5]: 0.032 µM
Kd [6]: 142 µM
Substance: ZAP70 SH2 domains (from UniProt P43403)
